Measured values taken from PMC2756588.

T1: Abp1, P15891
T1 sequence (P15891 535-592, looked up): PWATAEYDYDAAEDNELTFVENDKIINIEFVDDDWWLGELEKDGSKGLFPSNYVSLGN

T2: Cyk3, Q07533
T2 sequence (Q07533 1-83, looked up): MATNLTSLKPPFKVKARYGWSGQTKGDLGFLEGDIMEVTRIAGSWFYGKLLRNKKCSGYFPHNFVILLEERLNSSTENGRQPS

T3: Boi2, P39969
T3 sequence (P39969 32-116, looked up): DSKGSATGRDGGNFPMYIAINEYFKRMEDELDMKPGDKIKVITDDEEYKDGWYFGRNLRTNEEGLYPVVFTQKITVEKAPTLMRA

T4: Fus1, P11710
T4 sequence (P11710 432-512, looked up): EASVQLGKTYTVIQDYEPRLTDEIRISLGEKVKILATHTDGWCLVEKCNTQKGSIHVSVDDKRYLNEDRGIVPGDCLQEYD

T5: Sla1-3, P32790
T5 sequence (P32790 344-424, looked up): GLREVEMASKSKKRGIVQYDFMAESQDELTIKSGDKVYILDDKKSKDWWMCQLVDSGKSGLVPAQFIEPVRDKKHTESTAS

T6: Hof1, Q05080
T6 sequence (Q05080 590-669, looked up): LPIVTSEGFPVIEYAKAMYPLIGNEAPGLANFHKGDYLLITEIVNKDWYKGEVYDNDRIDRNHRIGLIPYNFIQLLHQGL

T7: Hse1, P38753
T7 sequence (P38753 208-285, looked up): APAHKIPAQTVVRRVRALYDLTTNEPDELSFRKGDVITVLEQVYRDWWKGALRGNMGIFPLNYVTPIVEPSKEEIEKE

T8: Boi1, P38041
T8 sequence (P38041 1-86, looked up): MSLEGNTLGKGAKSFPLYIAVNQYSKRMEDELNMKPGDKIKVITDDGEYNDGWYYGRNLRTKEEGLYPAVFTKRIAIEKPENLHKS

T9: Pex13, P80667
T9 sequence (P80667 295-386, looked up): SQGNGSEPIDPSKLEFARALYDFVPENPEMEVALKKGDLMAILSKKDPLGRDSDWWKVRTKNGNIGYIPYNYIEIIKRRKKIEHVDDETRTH

T10: Sla1-2, P32790
T10 sequence (P32790 60-140, looked up): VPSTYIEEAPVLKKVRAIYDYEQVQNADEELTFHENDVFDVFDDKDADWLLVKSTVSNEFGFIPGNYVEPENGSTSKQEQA

T11: Bbc1, P47068
T11 sequence (P47068 1-78, looked up): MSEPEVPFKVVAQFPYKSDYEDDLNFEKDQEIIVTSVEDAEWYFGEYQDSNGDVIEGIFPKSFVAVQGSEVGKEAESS

T12: Lsb4, P32793
T12 sequence (P32793 402-468, looked up): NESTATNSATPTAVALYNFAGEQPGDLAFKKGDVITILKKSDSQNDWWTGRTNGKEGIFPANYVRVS

T13: Pin3, Q06449
T13 sequence (Q06449 53-122, looked up): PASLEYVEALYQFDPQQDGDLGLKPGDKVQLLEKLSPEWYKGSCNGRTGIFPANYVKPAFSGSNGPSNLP

T14: Lsb3, P43603
T14 sequence (P43603 385-451, looked up): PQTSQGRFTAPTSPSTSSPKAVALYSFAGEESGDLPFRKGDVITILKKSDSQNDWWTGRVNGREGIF

T15: Lsb1, P53281
T15 sequence (P53281 45-122, looked up): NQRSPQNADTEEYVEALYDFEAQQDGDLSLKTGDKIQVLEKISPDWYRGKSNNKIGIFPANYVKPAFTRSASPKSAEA

T16: Bzz1-2, P38822
T16 sequence (P38822 568-633, looked up): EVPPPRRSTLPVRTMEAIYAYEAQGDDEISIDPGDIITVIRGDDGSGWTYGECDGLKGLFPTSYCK

T17: Cdc25, P04821
T17 sequence (P04821 50-136, looked up): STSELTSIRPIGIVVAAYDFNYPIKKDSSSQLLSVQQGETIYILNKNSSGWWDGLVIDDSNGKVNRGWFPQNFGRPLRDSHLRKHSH

T18: Bud14, P27637
T18 sequence (P27637 247-328, looked up): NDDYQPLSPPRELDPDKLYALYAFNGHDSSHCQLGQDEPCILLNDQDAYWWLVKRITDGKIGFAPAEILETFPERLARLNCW

T19: Nbp2, Q12163
T19 sequence (Q12163 103-180, looked up): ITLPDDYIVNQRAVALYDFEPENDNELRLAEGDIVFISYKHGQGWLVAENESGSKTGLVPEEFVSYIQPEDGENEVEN

T20: Myo5, Q04439
T20 sequence (Q04439 1072-1160, looked up): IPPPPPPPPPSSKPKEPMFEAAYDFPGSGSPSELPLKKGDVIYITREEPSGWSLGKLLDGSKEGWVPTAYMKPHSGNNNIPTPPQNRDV

T21: Bzz1-1, P38822
T21 sequence (P38822 478-572, looked up): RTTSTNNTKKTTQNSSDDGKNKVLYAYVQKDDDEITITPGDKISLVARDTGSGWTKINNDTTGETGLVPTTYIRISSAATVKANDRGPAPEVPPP


Molecular target: T1, Abp1, P15891
Assay: SPOT array
Details: median of control spots 935

Binder	SPOT intensity
GKFIPSRPAPKPPSS	231
QTREPNEPPPPSPAM	7
KTKQQKPAIPQKKSF	617
MTKTPETSPPKRPMG	75

Molecular target: T2, Cyk3, Q07533
Assay: SPOT array
Details: median of control spots 1451

Binder	SPOT intensity
GKFIPSRPAPKPPSS	2
QTREPNEPPPPSPAM	1
KTKQQKPAIPQKKSF	0
MTKTPETSPPKRPMG	0

Molecular target: T3, Boi2, P39969
Assay: SPOT array
Details: median of control spots 1161

Binder	SPOT intensity
GKFIPSRPAPKPPSS	4
QTREPNEPPPPSPAM	3
KTKQQKPAIPQKKSF	0
MTKTPETSPPKRPMG	0

Molecular target: T4, Fus1, P11710
Assay: SPOT array
Details: median of control spots 1200

Binder	SPOT intensity
GKFIPSRPAPKPPSS	0
QTREPNEPPPPSPAM	0
KTKQQKPAIPQKKSF	0
MTKTPETSPPKRPMG	0

Molecular target: T5, Sla1-3, P32790
Assay: SPOT array
Details: median of control spots 5475

Binder	SPOT intensity
GKFIPSRPAPKPPSS	492
QTREPNEPPPPSPAM	0
KTKQQKPAIPQKKSF	0
MTKTPETSPPKRPMG	0

Molecular target: T6, Hof1, Q05080
Assay: SPOT array
Details: median of control spots 4086

Binder	SPOT intensity
GKFIPSRPAPKPPSS	0
QTREPNEPPPPSPAM	0
KTKQQKPAIPQKKSF	0
MTKTPETSPPKRPMG	16

Molecular target: Rvs167, P39743
Assay: SPOT array
Details: median of control spots 2707

Sequence of Rvs167, P39743 (P39743 419-482): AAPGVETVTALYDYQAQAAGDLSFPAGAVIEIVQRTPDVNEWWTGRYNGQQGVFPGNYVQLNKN

Binder	SPOT intensity
GKFIPSRPAPKPPSS	5
QTREPNEPPPPSPAM	4
KTKQQKPAIPQKKSF	4
MTKTPETSPPKRPMG	0

Molecular target: T7, Hse1, P38753
Assay: SPOT array
Details: median of control spots 1727

Binder	SPOT intensity
GKFIPSRPAPKPPSS	0
QTREPNEPPPPSPAM	0
KTKQQKPAIPQKKSF	6
MTKTPETSPPKRPMG	0

Molecular target: T8, Boi1, P38041
Assay: SPOT array
Details: median of control spots 1162

Binder	SPOT intensity
GKFIPSRPAPKPPSS	3
QTREPNEPPPPSPAM	0
KTKQQKPAIPQKKSF	0
MTKTPETSPPKRPMG	0

Molecular target: T9, Pex13, P80667
Assay: SPOT array
Details: median of control spots 1341

Binder	SPOT intensity
GKFIPSRPAPKPPSS	362
QTREPNEPPPPSPAM	7
KTKQQKPAIPQKKSF	5
MTKTPETSPPKRPMG	8

Molecular target: T10, Sla1-2, P32790
Assay: SPOT array
Details: median of control spots 712

Binder	SPOT intensity
GKFIPSRPAPKPPSS	0
QTREPNEPPPPSPAM	0
KTKQQKPAIPQKKSF	0
MTKTPETSPPKRPMG	2

Molecular target: Myo3, P36006
Assay: SPOT array
Details: median of control spots 468

Binder	SPOT intensity
GKFIPSRPAPKPPSS	553
QTREPNEPPPPSPAM	502
KTKQQKPAIPQKKSF	2
MTKTPETSPPKRPMG	455

Molecular target: T11, Bbc1, P47068
Assay: SPOT array
Details: median of control spots 796

Binder	SPOT intensity
GKFIPSRPAPKPPSS	138
QTREPNEPPPPSPAM	0
KTKQQKPAIPQKKSF	1
MTKTPETSPPKRPMG	0

Molecular target: T12, Lsb4, P32793
Assay: SPOT array
Details: median of control spots 397

Binder	SPOT intensity
GKFIPSRPAPKPPSS	56
QTREPNEPPPPSPAM	13
KTKQQKPAIPQKKSF	2
MTKTPETSPPKRPMG	36

Molecular target: Bem1-1, P29366
Assay: SPOT array
Details: median of control spots 4282

Sequence of Bem1-1, P29366 (P29366 55-141): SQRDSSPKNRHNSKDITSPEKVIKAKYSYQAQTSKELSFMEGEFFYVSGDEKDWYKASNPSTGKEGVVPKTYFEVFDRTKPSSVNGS

Binder	SPOT intensity
GKFIPSRPAPKPPSS	1
QTREPNEPPPPSPAM	1
KTKQQKPAIPQKKSF	0
MTKTPETSPPKRPMG	0

Molecular target: T13, Pin3, Q06449
Assay: SPOT array
Details: median of control spots 2171

Binder	SPOT intensity
GKFIPSRPAPKPPSS	12
QTREPNEPPPPSPAM	21
KTKQQKPAIPQKKSF	3
MTKTPETSPPKRPMG	24

Molecular target: T14, Lsb3, P43603
Assay: SPOT array
Details: median of control spots 406

Binder	SPOT intensity
GKFIPSRPAPKPPSS	21
QTREPNEPPPPSPAM	2
KTKQQKPAIPQKKSF	4
MTKTPETSPPKRPMG	34

Molecular target: T15, Lsb1, P53281
Assay: SPOT array
Details: median of control spots 388

Binder	SPOT intensity
GKFIPSRPAPKPPSS	360
QTREPNEPPPPSPAM	0
KTKQQKPAIPQKKSF	0
MTKTPETSPPKRPMG	3

Molecular target: T16, Bzz1-2, P38822
Assay: SPOT array
Details: median of control spots 4538

Binder	SPOT intensity
GKFIPSRPAPKPPSS	52
QTREPNEPPPPSPAM	0
KTKQQKPAIPQKKSF	9
MTKTPETSPPKRPMG	4

Molecular target: Bem1-2, P29366
Assay: SPOT array
Details: median of control spots 4347

Sequence of Bem1-2, P29366 (P29366 139-227): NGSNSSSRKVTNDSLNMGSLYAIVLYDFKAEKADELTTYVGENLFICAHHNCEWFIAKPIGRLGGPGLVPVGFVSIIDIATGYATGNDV

Binder	SPOT intensity
GKFIPSRPAPKPPSS	14600
QTREPNEPPPPSPAM	0
KTKQQKPAIPQKKSF	5
MTKTPETSPPKRPMG	3

Molecular target: GST
Assay: SPOT array
Details: median of control spots 978

Binder	SPOT intensity
GKFIPSRPAPKPPSS	0
QTREPNEPPPPSPAM	0
KTKQQKPAIPQKKSF	1
MTKTPETSPPKRPMG	0

Molecular target: T17, Cdc25, P04821
Assay: SPOT array
Details: median of control spots 969

Binder	SPOT intensity
GKFIPSRPAPKPPSS	4
QTREPNEPPPPSPAM	0
KTKQQKPAIPQKKSF	3
MTKTPETSPPKRPMG	2

Molecular target: T18, Bud14, P27637
Assay: SPOT array
Details: median of control spots 956

Binder	SPOT intensity
GKFIPSRPAPKPPSS	0
QTREPNEPPPPSPAM	0
KTKQQKPAIPQKKSF	0
MTKTPETSPPKRPMG	0

Molecular target: Sho1, P40073
Assay: SPOT array
Details: median of control spots 1148

Sequence of Sho1, P40073 (P40073 287-367): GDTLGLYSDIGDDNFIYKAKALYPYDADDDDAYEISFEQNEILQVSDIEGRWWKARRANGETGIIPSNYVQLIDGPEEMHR

Binder	SPOT intensity
GKFIPSRPAPKPPSS	22
QTREPNEPPPPSPAM	0
KTKQQKPAIPQKKSF	38
MTKTPETSPPKRPMG	5

Molecular target: T19, Nbp2, Q12163
Assay: SPOT array
Details: median of control spots 357

Binder	SPOT intensity
GKFIPSRPAPKPPSS	2880
QTREPNEPPPPSPAM	0
KTKQQKPAIPQKKSF	0
MTKTPETSPPKRPMG	0

Molecular target: T20, Myo5, Q04439
Assay: SPOT array
Details: median of control spots 471

Binder	SPOT intensity
GKFIPSRPAPKPPSS	593
QTREPNEPPPPSPAM	515
KTKQQKPAIPQKKSF	1
MTKTPETSPPKRPMG	499

Molecular target: T21, Bzz1-1, P38822
Assay: SPOT array
Details: median of control spots 4446

Binder	SPOT intensity
GKFIPSRPAPKPPSS	2
QTREPNEPPPPSPAM	0
KTKQQKPAIPQKKSF	0
MTKTPETSPPKRPMG	3
